{"source": "patent US20240016956A1", "biological_target": "AAV9 capsid (of the vector AAV9.CAG.GFP / AAV9 test virus) (AAV9)", "experiment": "cell-based or functional assay", "note": "Values joined by “and” are separate entries in the source; they are usually repeats but may differ in a detail not shown here. Equal values may be shown once."}
{"substance": "IVIG (intravenous immunoglobulin), a purified mix of IgG obtained from thousands of healthy donors", "values": [{"measurement": "AAV9 NAb50 Titer in HEK293 cells (fresh IVIG sample) (reciprocal dilution)", "value": "160 and 320"}]}
